Patent US20240010684A1, “MASP INHIBITORY COMPOUNDS AND USES THEREOF” (BAYER AKTIENGESELLSCHAFT, priority 2020, published 2024)
Bridges are numbered along the chain shown (N, C = ends). [ ]: non-standard residue; d: D form. Oic = O=C(O)[C@@H]1C[C@@H]2CCCC[C@@H]2N1; Trx = NC[C@H]1CC[C@H](C(=O)O)CC1; tBuAla = CC(C)(C)C[C@H](N)C(=O)O; Pen = CC(C)(S)[C@H](N)C(=O)O; NMeC = CN[C@@H](CS)C(=O)O; Abu = CC[C@H](N)C(=O)O; Ahx = NCCCCCC(=O)O; GABA = NCCCC(=O)O; Sar = CNCC(=O)O

T1: recombinant human MASP1 (amino acids 297-699, C-terminal His Tag) (human) (UniProt P48740)
T1 sequence: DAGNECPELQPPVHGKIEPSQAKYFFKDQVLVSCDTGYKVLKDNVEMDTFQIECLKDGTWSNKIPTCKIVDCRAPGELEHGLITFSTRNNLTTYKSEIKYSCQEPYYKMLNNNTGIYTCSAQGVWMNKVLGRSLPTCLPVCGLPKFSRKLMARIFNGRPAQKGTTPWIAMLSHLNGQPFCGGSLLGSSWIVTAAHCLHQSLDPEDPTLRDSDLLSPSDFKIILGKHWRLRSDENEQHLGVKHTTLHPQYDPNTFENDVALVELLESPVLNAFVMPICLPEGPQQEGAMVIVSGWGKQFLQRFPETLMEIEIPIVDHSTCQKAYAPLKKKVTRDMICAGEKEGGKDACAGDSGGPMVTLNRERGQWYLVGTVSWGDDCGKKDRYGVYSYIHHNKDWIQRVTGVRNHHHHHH

T2: recombinant rat MASP1 (amino acids 302-704, C-terminal His Tag) (rat), Q8CHN8
T2 chain: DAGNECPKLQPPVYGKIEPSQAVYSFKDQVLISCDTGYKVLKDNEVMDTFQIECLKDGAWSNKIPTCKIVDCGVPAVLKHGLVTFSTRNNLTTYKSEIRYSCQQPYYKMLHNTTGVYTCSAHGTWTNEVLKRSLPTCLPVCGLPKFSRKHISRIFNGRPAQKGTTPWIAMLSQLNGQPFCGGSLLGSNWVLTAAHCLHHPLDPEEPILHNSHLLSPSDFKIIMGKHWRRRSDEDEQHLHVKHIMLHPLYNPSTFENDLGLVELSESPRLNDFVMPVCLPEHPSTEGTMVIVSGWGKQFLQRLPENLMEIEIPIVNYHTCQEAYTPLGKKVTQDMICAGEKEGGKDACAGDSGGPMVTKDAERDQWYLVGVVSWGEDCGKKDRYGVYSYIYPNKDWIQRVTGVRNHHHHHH

T3: recombinant human MASP1 (amino acids 297-699, C-terminal His Tag) (human), P48740
T3 chain: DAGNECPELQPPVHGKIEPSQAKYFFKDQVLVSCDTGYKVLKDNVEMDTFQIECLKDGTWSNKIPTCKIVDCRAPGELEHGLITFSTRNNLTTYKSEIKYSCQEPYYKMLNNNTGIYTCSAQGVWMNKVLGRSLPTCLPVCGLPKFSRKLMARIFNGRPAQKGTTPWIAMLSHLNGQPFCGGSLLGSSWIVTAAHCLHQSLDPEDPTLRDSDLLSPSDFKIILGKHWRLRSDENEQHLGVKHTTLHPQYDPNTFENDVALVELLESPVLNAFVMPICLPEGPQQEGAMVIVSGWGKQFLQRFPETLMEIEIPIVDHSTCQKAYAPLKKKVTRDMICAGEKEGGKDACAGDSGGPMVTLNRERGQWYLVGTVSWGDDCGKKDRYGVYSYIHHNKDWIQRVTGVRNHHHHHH


What was measured:
Test in all cases: cell-based or functional assay
[1] = molecular target: T1, recombinant human MASP1 (amino acids 297-699, C-terminal His Tag) (human)
[2] = molecular target: recombinant human MASP2 (amino acids 297-686, C-terminal His Tag) (human) (UniProt O00187)
recombinant human MASP2 (amino acids 297-686, C-terminal His Tag) (human), sequence (O00187 other isoform, or with tags, fused parts or gaps limits assumed): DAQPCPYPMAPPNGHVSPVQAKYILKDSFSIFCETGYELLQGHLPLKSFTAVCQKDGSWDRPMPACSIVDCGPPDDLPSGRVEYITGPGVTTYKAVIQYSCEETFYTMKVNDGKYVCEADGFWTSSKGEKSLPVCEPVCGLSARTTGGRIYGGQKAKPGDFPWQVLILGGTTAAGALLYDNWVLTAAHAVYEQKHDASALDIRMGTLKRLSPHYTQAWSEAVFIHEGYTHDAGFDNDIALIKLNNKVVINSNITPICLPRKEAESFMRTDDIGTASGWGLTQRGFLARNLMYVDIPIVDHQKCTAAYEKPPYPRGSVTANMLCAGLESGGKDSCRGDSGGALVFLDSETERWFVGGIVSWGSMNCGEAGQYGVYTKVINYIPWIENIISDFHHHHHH

[3] = molecular target: recombinant human MASP2 (amino acids 297-686, C-terminal His Tag) (human), O00187
recombinant human MASP2 (amino acids 297-686, C-terminal His Tag) (human), O00187, sequence (O00187 other isoform, or with tags, fused parts or gaps limits assumed): as above

[4] = molecular target: T2, recombinant rat MASP1 (amino acids …)
[5] = molecular target: recombinant rat MASP2 (amino acids 296-685, C-terminal His Tag) (rat), Q9JJS8
recombinant rat MASP2 (amino acids 296-685, C-terminal His Tag) (rat), Q9JJS8, sequence (Q9JJS8 other isoform, or with tags, fused parts or gaps limits assumed): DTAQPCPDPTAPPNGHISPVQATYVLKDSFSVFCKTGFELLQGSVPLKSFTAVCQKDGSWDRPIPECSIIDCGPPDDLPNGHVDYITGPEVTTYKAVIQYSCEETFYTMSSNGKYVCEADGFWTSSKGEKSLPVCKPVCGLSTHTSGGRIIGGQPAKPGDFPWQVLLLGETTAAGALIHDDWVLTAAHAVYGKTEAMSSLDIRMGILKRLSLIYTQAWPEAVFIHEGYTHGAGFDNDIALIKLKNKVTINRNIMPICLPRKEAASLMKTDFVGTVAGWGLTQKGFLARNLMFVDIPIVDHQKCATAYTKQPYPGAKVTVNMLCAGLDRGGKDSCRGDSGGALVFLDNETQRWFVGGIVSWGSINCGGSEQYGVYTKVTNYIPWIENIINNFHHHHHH

[6] = molecular target: T3, recombinant human MASP1 (amino acids …)

Binder	human MASP1 IC50 [1]	human MASP2 IC50 [2]	human MASP2 IC50 [3]	rat MASP1 IC50 [4]	rat MASP2 IC50 [5]	human MASP1 IC50 [6]
cyclo(AGAICSRS[tBuAla]PPI[NMeC]IPD) (disulfide 5-13; also: TFA salt) [Example 31: A**GAIC+SRS-((tBu)A)-PPI-((N-Me)C)+-IPD**]	16 nM	130 nM	–	–	–	–
cyclo([Ahx]GICSRS[tBuAla]PPI[NMeC]IPD) (disulfide 4-12; also: TFA salt) [Example 30: (Ahx)**-GIC+SRS-((tBu)A)-PPI-((N-Me)C)+-IPD**]	16 nM	65 nM	–	–	–	–
GRCTKSIPPICFPD (modifications not checked) [Bicyclic SFTI-1: G**RC+TKSIPPIC+FPD**]	–	–	> 3000 nM	1000 nM	1000 nM	> 3000 nM
cyclo([Ahx][Abu]ICSRS[tBuAla]PPI[NMeC]IPD) (disulfide 4-12; also: TFA salt) [Example 33: (Ahx)**-(Abu)-IC+SRS-((tBu)A)-PPI-((N-Me)C)+-IPD**]	28 nM	62 nM	–	–	–	–

Further lines, results first:

human MASP1 IC50 [1]	human MASP2 IC50 [2]	human MASP2 IC50 [3]	rat MASP1 IC50 [4]	rat MASP2 IC50 [5]	human MASP1 IC50 [6]	Binder
20 nM	190 nM	–	–	–	–	G[Trx]GICSRS[tBuAla]PPI[NMeC]IPD-NH2 (disulfide 5-13; lactam N-16; also: TFA salt) [Example 69: G**-(TXA)-GIC+SRS-((tBu)A)-PPI-((N-Me)C)+-IPD++-NH2]
8.7 nM	110 nM	–	–	–	–	cyclo([GABA]ICSRS[tBuAla]PPI[NMeC]IPD) (disulfide 3-11; also: TFA salt) [Example 36: (Gamma-Abu)**-IC+SRS-((tBu)A)-PPI-((N-Me)C)+-IPD**]
9.7 nM	180 nM	–	–	–	–	[Ahx][Sar]GICSRSLP[Oic]I[Pen]IPE-NH2 (disulfide 5-13; lactam N-16; also: TFA salt) [Example 76: (Ahx)**-((N-Me)G)-GIC+SRSLP-(Oic)-I-(Pen)+-IPE++-NH2]
7.1 nM	90 nM	–	–	–	–	[Ahx]GICSRS[tBuAla]PPI[NMeC]IPD-NH2 (disulfide 4-12; lactam N-15; also: TFA salt) [Example 40: (Ahx)**-GIC+SRS-((tBu)A)-PPI-((N-Me)C)+-IPD++-NH2]
